Results as given in patent US20230212533.

Assays:
[1] = molecular target: Bovine mitochondrial cytochrome c, P62894
[2] = molecular target: T1, CycN cytochrome c protein (Pseudomonas putida S16)
T1 chain: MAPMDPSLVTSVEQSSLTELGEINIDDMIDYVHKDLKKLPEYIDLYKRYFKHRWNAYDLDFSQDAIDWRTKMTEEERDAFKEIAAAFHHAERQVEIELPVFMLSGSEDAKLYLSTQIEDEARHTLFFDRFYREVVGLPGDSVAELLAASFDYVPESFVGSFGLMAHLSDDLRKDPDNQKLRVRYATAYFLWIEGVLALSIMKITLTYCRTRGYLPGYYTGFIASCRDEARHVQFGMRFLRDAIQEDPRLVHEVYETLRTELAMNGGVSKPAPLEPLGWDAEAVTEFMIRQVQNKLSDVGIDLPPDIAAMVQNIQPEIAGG

Chain of Bovine mitochondrial cytochrome c, P62894 (P62894 2-105): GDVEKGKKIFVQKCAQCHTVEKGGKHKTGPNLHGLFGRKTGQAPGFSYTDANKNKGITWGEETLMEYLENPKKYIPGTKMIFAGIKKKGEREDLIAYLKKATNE

B1: NicA2 nicotine oxidoreductase (wild-type, Pseudomonas putida S16) (protein)
chain: TQKTNRASTVKGGFDYDVVVVGGGFAGATAARECGLQGYRTLLLEARSRLGGRTFTSRFAGQEIEFGGAWVHWLQPHVWAEMQRYGLGVVEDPLTNLDKTLIMYNDGSVESISPDEFGKNIRIAFEKLCHDAWEVFPRPHEPMFTERARELDKSSVLDRIKTLGLSRLQQAQINSYMALYAGETTDKFGLPGVLKLFACGGWNYDAFMDTETHYRIQGGTIGLINAMLTDSGAEVRMSVPVTAVEQVNGGVKIKTDDDEIITAGVVVMTVPLNTYKHIGFTPALSKGKQRFIKEGQLSKGAKLYVHVKQNLGRVFAFADEQQPLNWVQTHDYSDELGTILSITIARKETIDVNDRDAVTREVQKMFPGVEVLGTAAYDWTADPFSLGAWAAYGVGQLSRLKDLQAAEGRILFAGAETSNGWHANIDGAVESGLRAGREVKQLLS
reduction of bovine cytochrome c, UV-VIS absorbance 250-600 nm for 15 minutes; 6.84 µM bovine cytochrome c with NicA2 and nicotine [1]: The bovine mitochondrial cytochrome c was not efficiently reduced by this system | kobs for the second phase, stopped-flow at 542 nm [2]: invariant at ˜5.5 s^-1 independent of the CycNox concentration used | reduction of CycN heme, UV-VIS absorbance (Soret band, 410 and 550 nm); 3.75 µM CycN, 30 nM NicA2, 100 µM nicotine [2]: a characteristic increase and shift of Soret banding pattern was observed, which indicated that CycN had become reduced | time to complete electron transfer, anaerobic stopped-flow; 15 µM NicA2-Flred mixed with excess CycNox [2]: Electron transfer between NicA2-Flred and CycNox appeared to be very rapid, being complete in under one second
